Measurements as given in patent US20090317326A1 (published 2009).

Each binder was assayed against T1, human GRP receptor (human, UniProt P30550 1-384) (assay: binding affinity (IC50); assay format, labelled ligand and receptor source not described).
T1 construct: also called Gastrin-releasing peptide (GRP) receptor; GRP receptors
T1 sequence (P30550 whole entry): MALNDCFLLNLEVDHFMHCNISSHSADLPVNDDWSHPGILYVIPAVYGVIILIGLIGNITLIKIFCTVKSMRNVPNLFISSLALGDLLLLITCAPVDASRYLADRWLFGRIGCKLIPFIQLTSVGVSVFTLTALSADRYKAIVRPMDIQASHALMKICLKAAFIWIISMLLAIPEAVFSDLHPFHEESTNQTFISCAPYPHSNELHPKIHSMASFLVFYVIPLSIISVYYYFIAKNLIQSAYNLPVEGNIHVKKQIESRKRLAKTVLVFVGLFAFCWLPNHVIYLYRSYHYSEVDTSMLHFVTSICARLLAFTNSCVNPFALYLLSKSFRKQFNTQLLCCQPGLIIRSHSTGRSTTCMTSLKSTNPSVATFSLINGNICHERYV

| Binder | IC50 |
| --- | --- |
| RXQWAVGHXL (not fully specified; N-terminal 3-trifluoromethyl-4-fluoro-benzoyl group (F is 18F or 19F); Ava (5-aminovaleric acid) spacer; NMeGly (N-methylglycine); Sta (statine); C-terminal amide, Synthetic bombesin analog) [3-CF3,4-F-Benzoyl-Arg-Ava-Gln-Trp-Ala-Val-NMeGly-His-Sta-Leu-NH2] | 0.3 to 1.8 nM |
| RXQWAVGHXL (not fully specified; N-terminal 3-cyano-4-fluoro-benzoyl group (F is 18F or 19F); Ava (5-aminovaleric acid) spacer; His(3Me) (3-methylhistidine); Sta (statine); C-terminal amide, Synthetic bombesin analog) [3-CN,4-F-Benzoyl-Arg-Ava-Gln-Trp-Ala-Val-Gly-His(3Me)-Sta-Leu-NH2] | 1 nM |

More lines, now with the values ahead:

| IC50 | Binder |
| --- | --- |
| 2.3 nM | RXQWAVGHXL (not fully specified; N-terminal 3-cyano-4-fluoro-benzoyl group (F is 18F or 19F); Ava (5-aminovaleric acid) spacer; NMeGly (N-methylglycine); His(3Me) (3-methylhistidine); Sta (statine); C-terminal amide, Synthetic bombesin analog) [4F,3CN-Bnz-Arg-Ava-Gln-Trp-Ala-Val-NMeGly-His(3Me)-Sta-Leu-NH2] |
| 1.9 to 2.7 nM | RXQWAVGHXL (not fully specified; N-terminal 3-cyano-4-fluoro-benzoyl group (F is 18F or 19F); Ava (5-aminovaleric acid) spacer; NMeGly (N-methylglycine); Sta (statine); C-terminal amide, Synthetic bombesin analog) [3-CN,4-F-Benzoyl-Arg-Ava-Gln-Trp-Ala-Val-NMeGly-His-Sta-Leu-NH2] |
